Data set [1] has as its system immunoglobulin G (IgG), pooled. Nature of the data set: SPR. Conditions: 5' thiol (immobilized on gold); SPR imaging, aptamer immobilized on gold chip; IgG 250 nM; ka 3.69E5, kd 7.56E-3.
Data set [2] has as its target human serum albumin (HSA) (Homo sapiens, UniProt P02768 P02768:25-609). Description: SPR; counter-target; 250 nM HSA; aptamer described as selected to bind IgG and not HSA; curve only in figure. How it is done: These sequences were synthesized with a 5′ thiol and immobilized onto a gold surface in triplicate spots at a concentration of 5 uM in a volume of 10 nL. A negative aptamer of the same length not selected for binding to serum albumin was also spotted on the gold chips in the same manner. These were allowed to dry, and the remainder of the surface was blocked with thiolylated polyethylene glycol with an average molecular weight of 5 kda. The gold chips were then inserted on top of a glass prism in a Horiba Openplex Surface Plasmon Resonance imaging instrument (SPRi). Human serum albumin at two concentrations (100 nM and 250 nM) was injected over the chip at a volume of 200 uL and a flow rate of 50 uL/min. We also injected a pool of immunoglobulin (IgG) at a concentration of 250 nM at the same volume and flow rates.
Binding analysis for the selected IgG sequences was performed in a manner identical to that described for the HSA sequences.
(In general: Surface plasmon resonance follows binding to a sensor surface in real time, without labels.)

In general, Kd refers to the equilibrium constant for the complex coming apart. Low values mean a tighter complex, high ones a looser complex.

Sequence of human serum albumin (HSA) (P02768 25-609, one chain of several): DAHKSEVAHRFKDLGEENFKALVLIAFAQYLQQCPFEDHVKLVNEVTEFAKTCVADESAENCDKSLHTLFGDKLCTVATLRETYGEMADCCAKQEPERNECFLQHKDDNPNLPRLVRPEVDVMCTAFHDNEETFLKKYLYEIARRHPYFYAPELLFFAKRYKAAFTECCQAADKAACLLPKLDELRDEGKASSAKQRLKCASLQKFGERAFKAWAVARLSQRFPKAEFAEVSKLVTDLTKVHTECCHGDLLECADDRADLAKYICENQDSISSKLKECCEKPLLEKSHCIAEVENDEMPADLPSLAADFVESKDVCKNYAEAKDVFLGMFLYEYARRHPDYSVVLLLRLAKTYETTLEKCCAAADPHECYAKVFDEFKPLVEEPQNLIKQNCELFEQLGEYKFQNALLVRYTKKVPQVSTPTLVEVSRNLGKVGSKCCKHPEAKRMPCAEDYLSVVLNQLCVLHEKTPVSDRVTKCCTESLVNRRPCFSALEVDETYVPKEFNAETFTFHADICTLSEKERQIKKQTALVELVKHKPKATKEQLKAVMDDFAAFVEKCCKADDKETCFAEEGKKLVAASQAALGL

Molecule “CCAGATACAGACCCGAGGTGAGAATTTCAACCATCGGCGCCAACAAAACATTCTCTCAGATACAGTAGACAGC [fBIgG-2]” gave a dissociation constant (Kd) in data set [1] of 20.5 nM.

B1: fBIgG-2 (ssDNA)
DNA: CCAGATACAGACCCGAGGTGAGAATTTCAACCATCGGCGCCAACAAAACATTCTCTCAGATACAGTAGACAGC
modifications: 5' thiol (immobilized on gold)
For the molecule B1, the binding result in data set [2] is given as “no binding”.

For the origin of these results see patent US20250116035, “A METHOD FOR REPRODUCIBLE APTAMER SELECTION USING CLOSED SEQUENCE SOLUTION SPACES” (NEOVENTURES BIOTECHNOLOGY INC., published 2025).
